The values that follow are results of earlier work, collected in patent US20120202218A1, “DETECTION METHOD AND DEVICE BASED ON NANOPARTICLE AGGREGATION” (MODPRO AB, priority 2008, published 2012).

For data set [1] the following is noted: neutral pH.
A further data set concerns the target Fab57P. Conditions: binding to Fab57P, literature.

Turning to “H2N-NAADLEKAIEALEKHLEAKGPCDAAQLEKQLEQAFEAFERAG-COOH (H-NAADLEKAIEALEKHLEAKGPCDAAQLEKQLEQAFEAFERAG-OH) [JR2EC]”, the net charge in data set [1] is reported as −5.

The Kd is the concentration at which binding is half-saturated. As for H-CRGTGSYNRSSFESSSGLV-NH2 [C-pTMVP], on Fab57P, the Kd was approximately 1 nM.
